The test system of the assay is human HL60 cells. As to the kind of experiment: SWATH-MS proteomics, differential protein representation, akirin2 KO vs WT HL60 cells. It is filed as cell-based. Particulars: sheet "Under-represented in KO". The method in brief: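 Read-out is label-free SWATH-MS protein area, globally normalized to total detected-protein area, with identifications held at 1% FDR against a library from information-dependent acquisition.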

B1: sp¦P25815¦S100P_HUMAN (protein, UniProt P25815 1-95, looked up)
Protein S100-P: MTELETAMGMIIDVFSRYSGSEGSTQTLTKGELKVLMEKELPGFLQSGKDKDAVDKLLKDLDANGDAQVDFSEFIVFVAAITSACHKYFEKAGLK
In the case of B1, under “KO vs WT HL60 cells”, the “Fold Change” value was found to be 0.4762 and the “Log (Fold Change)” value is on record as -0.3222.

B2: sp¦P42126¦ECI1_HUMAN (protein, UniProt P42126 42-302, looked up)
Enoyl-CoA delta isomerase 1, …: FGSQRVLVEPDAGAGVAVMKFKNPPVNSLSLEFLTELVISLEKLENDKSFRGVILTSDRPGVFSAGLDLTEMCGRSPAHYAGYWKAVQELWLRLYQSNLVLVSAINGACPAGGCLVALTCDYRILADNPRYCIGLNETQLGIIAPFWLKDTLENTIGHRAAERALQLGLLFPPAEALQVGIVDQVVPEEQVQSTALSAIAQWMAIPDHARQLTKAMMRKATASRLVTQRDADVQNFVSFISKDSIQKSLQMYLERLKEEKG
Take B2: under “KO vs WT HL60 cells”, the “Fold Change” value is on record as 0.4682 and the “Log (Fold Change)” value was -0.3295.

B3: sp¦Q9NUQ2¦PLCE_HUMAN (protein, UniProt Q9NUQ2 1-364, looked up)
1-acyl-sn-glycerol-3-phosphate …: MLLSLVLHTYSMRYLLPSVVLLGTAPTYVLAWGVWRLLSAFLPARFYQALDDRLYCVYQSMVLFFFENYTGVQILLYGDLPKNKENIIYLANHQSTVDWIVADILAIRQNALGHVRYVLKEGLKWLPLYGCYFAQHGGIYVKRSAKFNEKEMRNKLQSYVDAGTPMYLVIFPEGTRYNPEQTKVLSASQAFAAQRGLAVLKHVLTPRIKATHVAFDCMKNYLDAIYDVTVVYEGKDDGGQRRESPTMTEFLCKECPKIHIHIDRIDKKDVPEEQEHMRRWLHERFEIKDKMLIEFYESPDPERRKRFPGKSVNSKLSIKKTLPSMLILSGLTAGMLMTDAGRKLYVNTWIYGTLLGCLWVTIKA
With B3, where the note is “akirin2 KO vs WT HL60 cells”, the “Fold Change” value is listed as 0.2386 and the “Log (Fold Change)” value is listed as -0.6223.

B4: sp¦Q9Y617¦SERC_HUMAN (protein, UniProt Q9Y617 1-370, looked up)
Phosphoserine aminotransferase: MDAPRQVVNFGPGPAKLPHSVLLEIQKELLDYKGVGISVLEMSHRSSDFAKIINNTENLVRELLAVPDNYKVIFLQGGGCGQFSAVPLNLIGLKAGRCADYVVTGAWSAKAAEEAKKFGTINIVHPKLGSYTKIPDPSTWNLNPDASYVYYCANETVHGVEFDFIPDVKGAVLVCDMSSNFLSKPVDVSKFGVIFAGAQKNVGSAGVTVVIVRDDLLGFALRECPSVLEYKVQAGNSSLYNTPPCFSIYVMGLVLEWIKNNGGAAAMEKLSSIKSQTIYEIIDNSQGFYVCPVEPQNRSKMNIPFRIGNAKGDDALEKRFLDKALELNMLSLKGHRSVGGIRASLYNAVTIEDVQKLAAFMKKFLEMHQL
As to B4, for the setting “KO vs WT HL60 cells”, the “Fold Change” value was found to be 0.4967 and the “Log (Fold Change)” value is listed as -0.3039.

B5: sp¦Q9H7B2¦RPF2_HUMAN (protein, UniProt Q9H7B2 1-306, looked up)
Ribosome production factor 2 …: MDTLDRVVKPKTKRAKRFLEKREPKLNENIKNAMLIKGGNANATVTKVLKDVYALKKPYGVLYKKKNITRPFEDQTSLEFFSKKSDCSLFMFGSHNKKRPNNLVIGRMYDYHVLDMIELGIENFVSLKDIKNSKCPEGTKPMLIFAGDDFDVTEDYRRLKSLLIDFFRGPTVSNIRLAGLEYVLHFTALNGKIYFRSYKLLLKKSGCRTPRIELEEMGPSLDLVLRRTHLASDDLYKLSMKMPKALKPKKKKNISHDTFGTTYGRIHMQKQDLSKLQTRKMKGLKKRPAERITEDHEKKSKRIKKN
For B5, for the setting “KO vs WT HL60 cells”, the “Fold Change” value stood at 0.4816 and the “Log (Fold Change)” value was -0.3173.

B6: sp¦Q9NUQ9¦CYRIB_HUMAN (protein, UniProt Q9NUQ9 2-324, looked up)
CYFIP-related Rac1 interactor …: GNLLKVLTCTDLEQGPNFFLDFENAQPTESEKEIYNQVNVVLKDAEGILEDLQSYRGAGHEIREAIQHPADEKLQEKAWGAVVPLVGKLKKFYEFSQRLEAALRGLLGALTSTPYSPTQHLEREQALAKQFAEILHFTLRFDELKMTNPAIQNDFSYYRRTLSRMRINNVPAEGENEVNNELANRMSLFYAEATPMLKTLSDATTKFVSENKNLPIENTTDCLSTMASVCRVMLETPEYRSRFTNEETVSFCLRVMVGVIILYDHVHPVGAFAKTSKIDMKGCIKVLKDQPPNSVEGLLNALRYTTKHLNDETTSKQIKSMLQ
For B6, where the note is “KO vs WT HL60 cells”, the “Fold Change” value turned out to be 0.4847 and the “Log (Fold Change)” value was -0.3146.

Values taken from PMC8298264, “Function of cofactor Akirin2 in the regulation of gene expression in model human neutrophil-like HL60 cells” (Bioscience Reports, 2021).
